Experimental data taken from publication PMC6788708, “Occurrence and stability of hetero-hexamer associations formed by β-carboxysome CcmK shell components” (PLoS ONE, 2019).
“And” between values parts separate entries of the source, which are not always exact repeats. Equal entries are not always repeated.

T1: CcmK2 (Synechocystis sp. PCC6803), FLAG tag removed by TEV protease (Synechocystis sp. PCC6803, UniProt P72761 1-103)
T1 construct: CcmK2, BMC-H carboxysome shell protein of Synechocystis sp; PCC 6803; monomer masses in native MS indicate loss of the first methionine; Residues left after TEV cleavage are in S1 List; source: E. coli BL21(DE3), co-expressed with K1-His4, co-purified on TALON, tag removed with TEV protease; not shown: FLAG, C-terminal, cleaved
T1 sequence (looked up): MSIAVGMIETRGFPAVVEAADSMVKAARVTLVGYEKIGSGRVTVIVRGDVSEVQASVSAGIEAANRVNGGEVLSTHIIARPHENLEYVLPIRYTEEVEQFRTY

B1: CcmK1 (Synechocystis sp. PCC6803), His4 tag removed by TEV protease (natural protein, UniProt P72760 1-111, looked up)
chain: MSIAVGMIETLGFPAVVEAADSMVKAARVTLVGYEKIGSGRVTVIVRGDVSEVQASVTAGIENIRRVNGGEVLSNHIIARPHENLEYVLPIRYTEAVEQFREIVNPSIIRR
notes: CcmK1, BMC-H carboxysome shell protein of Synechocystis sp; PCC 6803; monomer masses in native MS indicate loss of the first methionine; In native MS it came from K1-His4 co-expressed with K2-FLAG; Residues left after TEV cleavage are in S1 List; also called untagged K1; source: E. coli BL21(DE3), TALON-purified, tag removed with TEV protease; not shown: His4, C-terminal, cleaved
B2: CcmK3 (Synechocystis sp. PCC6803), FLAG tag removed by TEV protease (natural protein, UniProt P73406 1-103, looked up)
chain: MPQAVGVIQTLGFPSVLAAADAMLKGGRVTLVYYDLAERGNFVVAIRGPVSEVNLSMKMGLAAVNESVMGGEIVSHYIVPNPPENVLAVLPVEYTEKVARFRT
notes: CcmK3, BMC-H carboxysome shell protein of Synechocystis sp; PCC 6803; monomer mass agrees with loss of the first methionine; Residues left after TEV cleavage are in S1 List; also called TEV-untagged K3-FLAG; source: E. coli BL21(DE3), co-expressed with His4-K4, co-purified on TALON, tag removed with TEV protease; not shown: FLAG, C-terminal, cleaved
B3: CcmK4 (Synechocystis sp. PCC6803), His4 tag removed by TEV protease (natural protein, UniProt P73407 1-112, looked up)
chain: MSAQSAVGSIETIGFPGILAAADAMVKAGRITIVGYIRAGSARFTLNIRGDVQEVKTAMAAGIDAINRTEGADVKTWVIIPRPHENVVAVLPIDFSPEVEPFREAAEGLNRR
notes: CcmK4, BMC-H carboxysome shell protein of Synechocystis sp; PCC 6803; In native MS it came from His4-K4 co-expressed with K3-FLAG; The untagged K4 homo-hexamer of the exchange experiment was made from a His4-tagged K4 expressed alone; Residues left after TEV cleavage are in S1 List; also called untagged K4; TEV-untagged His4-K4; source: E. coli BL21(DE3), TALON-purified, tag removed with TEV …
B4: His4-CcmK4 (Synechocystis sp. PCC6803 CcmK4, N-ter His4 tag) (natural protein, UniProt P73407 1-112, looked up)
chain: B3 chain
notes: CcmK4, BMC-H carboxysome shell protein of Synechocystis sp; PCC 6803; The crystallised sample came from His4-K4/K3-FLAG; no tag removal is told for it; also called His4-K4; source: E. coli BL21(DE3), co-expressed (pET26b-based plasmid, two or four cassettes), soluble fraction of the lysate; TALON-purified (pIsep-FPLC for crystallisation); not shown: His4, N-terminal, kept

Key:
[1] = biological target: T1, CcmK2 (Synechocystis sp. PCC6803), FLAG …; test: native MS; TALON-purified co-expressed samples, tags removed with TEV protease; 150 mM ammonium acetate pH 8; positive-ion native ESI-MS with collision induced dissociation of selected hexamers; details: both partners purified
[2] = biological target: B3; test: as above; details: both partners purified
[3] = biological target: the molecule itself; test: as above
[4] = biological target: the molecule itself; test: crystal structure; pIsep-FPLC fractions of His4-CcmK4/CcmK3-FLAG at 2.9 mg/mL; 22% PEG 4000, 0.2 M ammonium sulfate, 0.1 M sodium acetate pH 4.6, 12 C; only CcmK4 found in the crystal

Binder: B1
- stoichiometry N [1]: 0.2 K1:K2 in the hexamer (1:5) and 2 K1:K2 in the hexamer (4:2)

Binder: B2
- stoichiometry N [2]: 0.2 K3:K4 in the hexamer (1:5) and 0.5 K3:K4 in the hexamer (2:4)

Binder: B3
- stoichiometry N [3]: 6 subunits

Binder: B4
- stoichiometry N [4]: 6 subunits
